US20050124803A1

Experiments:
[1] = target: Cx. quinquefasciatus BBMV (brush border membrane vesicles of Culex quinquefasciatus larvae; toxin receptors on them not identified) (Culex quinquefasciatus); assay: saturation binding of 125I-toxin to BBMV, Hill fit; parameters: Bmax: unit not given here
[2] = target: Cx. quinquefasciatus BBMV (brush border membrane vesicles of Culex quinquefasciatus larvae; toxin receptors on them not identified) (Culex quinquefasciatus); assay: saturation binding of 125I-toxin to BBMV, Hill fit
[3] = target: Ae. aegypti BBMV (brush border membrane vesicles of Aedes aegypti larvae; toxin receptors on them not identified) (Aedes aegypti); assay: saturation binding of 125I-toxin to BBMV, Hill fit
[4] = target: An. quadrimaculatus BBMV (brush border membrane vesicles of Anopheles quadrimaculatus larvae; toxin receptors on them not identified) (Anopheles quadrimaculatus); assay: saturation binding of 125I-toxin to BBMV, Hill fit
[5] = target: Cx. quinquefasciatus BBMV (brush border membrane vesicles of Culex quinquefasciatus larvae; toxin receptors on them not identified) (Culex quinquefasciatus); assay: saturation binding of 125I-toxin to BBMV, Hill fit (repeats Table 3); parameters: Bmax: unit not given here

B1: 4BL3PAT (4BRA with D454 replaced with P and AT inserted after position 454, loop 3 of domain II) (protein)
chain: AINSSSVSTALKVAGAILKFVNPPAGTVLTVLSAVLPILWPTNTPTPERVWNDFMTNTGNLIDQTVTAYVRTDANAKMTVVKDYLDQYTTKFNTWKREPNNQSYRTAVITQFNLTSAKLRETAVYFSNLVGYELLLLPIYAQVANFNLLLIRDGLINAQEWSLAASAGDQLYNTMVQYTKEYIAHSITWYNKGLDVLRNKSNGQWITFNDYKREMTIQVLDILALFASYDPRRYPADKIDNTKLSKTEFTREIYTALVESPSSKSIAALEAALTRDVHLFTWLKRVDFWTNTIYQDLRFLSANKIGFSYTNSSAMQESGIYGSSGFGSNLTHQIQLNSNVYKTSITDTSSPSNRVTKMDFYKIDGTLASYNSNITPTPEGLRTTFFGFSTNENTPNQPTVNDYTHILSYIKTDVIPATYNSNRVSFAWTHKIVDPNNQIYTDAITQVPAVKSNFLNATAKVIKGPGHTGGDLVALTSNGTLSGRMEIQCKTSIFNDPTRSYGLRIRYAANSPIVLNVSYVLQGVSRGTTISTESTFSRPNNIIPTDLKYEEFRYKDPFDAIVPMRLSSNQLITIAIQPLNMTSNNQVIIDRIEIIPITQSVLDET
modifications: 125I-iodinated (iodo-bead, sites not stated) where used as labelled toxin
- Bmax [1]: 9.3
- K′D (composite dissociation constant) [1]: 0.9 nM

B2: 4BRA (Cry4Ba with R203 mutated to A, trypsin-activated toxin) (protein)
chain: AINSSSVSTALKVAGAILKFVNPPAGTVLTVLSAVLPILWPTNTPTPERVWNDFMTNTGNLIDQTVTAYVRTDANAKMTVVKDYLDQYTTKFNTWKREPNNQSYRTAVITQFNLTSAKLRETAVYFSNLVGYELLLLPIYAQVANFNLLLIRDGLINAQEWSLAASAGDQLYNTMVQYTKEYIAHSITWYNKGLDVLRNKSNGQWITFNDYKREMTIQVLDILALFASYDPRRYPADKIDNTKLSKTEFTREIYTALVESPSSKSIAALEAALTRDVHLFTWLKRVDFWTNTIYQDLRFLSANKIGFSYTNSSAMQESGIYGSSGFGSNLTHQIQLNSNVYKTSITDTSSPSNRVTKMDFYKIDGTLASYNSNITPTPEGLRTTFFGFSTNENTPNQPTVNDYTHILSYIKTDVIDYNSNRVSFAWTHKIVDPNNQIYTDAITQVPAVKSNFLNATAKVIKGPGHTGGDLVALTSNGTLSGRMEIQCKTSIFNDPTRSYGLRIRYAANSPIVLNVSYVLQGVSRGTTISTESTFSRPNNIIPTDLKYEEFRYKDPFDAIVPMRLSSNQLITIAIQPLNMTSNNQVIIDRIEIIPITQSVLDET
modifications: 125I-iodinated (iodo-bead, sites not stated) where used as labelled toxin
- Bmax [2]: 13.1 fmol/µg
- K′D (composite dissociation constant) [2]: 6.9 nM
- Bmax [3]: 17.2 fmol/µg
- K′D (composite dissociation constant) [3]: 0.5 nM
- Bmax [4]: 35.2 fmol/µg
- K′D (composite dissociation constant) [4]: 3.1 nM
- Bmax [5]: 13.1
- K′D (composite dissociation constant) [5]: 6.9 nM
